Measured values as given in patent publication US20150182631A1, “SYSTEM FOR […]-BASED ACTIVE INGREDIENTS” (Centre National De La Recherche Scientifique-CNRS, priority 2012, published 2015).
Numbering of substitutions follows the chain as printed. Names may count otherwise.

Tests used:
[1] = target: the molecule itself; test: isothermal titration calorimetry, dilution of concentrated XCL into buffer; tetramer-dimer equilibrium; tetramer-dimer equilibrium of XCL by dilution ITC
Experimental: In order to accurately measure the equilibrium constant of tetramerisation and also determine the thermodynamics of the tetramerisation of XCL, the inventors used isothermal titration calorimetry (Burrows et al., (1994) Lovatt et al., (1996) Barranco-Medina et al. (2009)). In this method, a concentrated solution of XCL was diluted in a buffer, and the dissociation heat of the dimers (or of the monomers) was measured. The quantity of heat released for each injection is governed by the enthalpy exchange from the tetramer to the dimer and the tetramer-dimer equilibrium constant.

[2] = Balanced FRET, exchange of monomers; type: physicochemical; details: 1 h incubation, pH 8.5
Experimental: Fluorescence energy transfer was used to reveal the exchange of the XCL monomers. The exchange reaction is initiated by mixing the same volume of XCL-RITC (1 μM or only the buffer as a reference) and of XCL-FITC (1 μM) at 25° C. in 50 mM of phosphate buffer, 100 mM NaCl, pH 8.5. After one hour of incubation, the emission spectrum of the sample excited at 490 nm is recorded by spectrofluorimetry (Photon Technology International QM-4). The same experiments were carried out with A38C-RITC and A38C-FITC.
The oligomerization balance of the XCL protein was characterised by the measurement of the appearance of resonance energy transfer of the Förster type (FRET) between two populations of XCL labelled separately either with FITC (Fluorescein IsoThioCyanate) or with RITC (Rhodamine IsoThioCyanate).
In this same figure, is also shown the spectrum obtained by mixing the labelled protein, either by the donor or by the acceptor (dotted line curve). This spectrum was deconvoluted, which gives the spectra shown as a dotted line in FIG. 2A.
For the purposes of comparison, the same experiment was carried out with the variant A38C. This variant is covalently bonded by two additional disulphide bridges. A perfectly superimposable spectrum was obtained after mixing donor and acceptor labelled proteins and incubation of this mixture for 1 h at ambient temperature (dotted lines of FIG. 3B).

[3] = Chemical dissociation by size exclusion chromatography at acidic pH; type: physicochemical
Experimental: The size exclusion chromatography experiments were carried out on a GE-Healthcare Superose 12 PC 3.2/30 column. The columns are pre-balanced in the buffer tested, namely phosphate buffer 50 mM, 100 mM NaCl, pH7.2 or pH 4.4 in the absence or in the presence of 0.003% of SDS. The flow rate is 0.5 mL/min. The BSA and the RNase A are used as a size marker.
The inventors studied the behaviour of XCL in denaturing chemical conditions close to those encountered in the lysosomes. The analysis was carried out via exclusion chromatography with an acidic pH (pH 4.4). It appears that the elution peak of XCL in these denaturing conditions is displaced to greater elution volumes showing the appearance of a smaller size. When 0.003% SDS is added, the elution peak is displaced to the elution volume of the RNAse A which has a molecular weight close to the XCL monomer.
The behaviour of the oxidised mutant A38C was also analysed. […] The addition of the disulphide bridge therefore increases the stability of the protein assembly.

[4] = Confinement of fluorescein in the lectin cavity; details: 4 days at ambient temperature, free fluorescein eliminated again
Experimental: The confinement experiments are carried out by incubating the wild-type protein (XCL) or the mutants (A38C) with the molecule to be tested. In order to carry out the control experiments with the mutant A38C, an oxidation step is carried out in the presence of GSSG in a phosphate buffer 50 mM, 100 mM NaCl, pH 7.2, OVN. The GSSG is then eliminated on a PD-10 sephadex G-25M column (GE Healthcare) pre-balanced in a phosphate buffer 50 mM, 100 mM NaCl, pH 8.5. The eluate is concentred at 1 ml on Vivaspin 15R 30,000 MWCO (Sartorius stedim). A batch of A38C is reduced to TCEP (under argon) with adding of NaOH for a final pH of 8.5. […] The quantity of fluorescein is measured by using an absorption coefficient of e511 nm=75,000 cm^−1 M^−1. The concentrations of XCL and of A38C after the confinement are calculated with e278 nm=[…]. The percentage of confinement is calculated by forming the ratio of the fluorescein/protein concentrations.
In the case with XCL, the inventors incubated the protein (15 μM) with fluorescein (10 mM) and then separated the protein from the non-confined molecules of fluorescein by two successive gel filtration columns. Beforehand, the inventors verified that if these two columns on the fluorescein solution are carried out at 10 mM, no residual free fluorescein is detected. […]

[5] = target: the molecule itself; test: size exclusion chromatography at pH 7.2 and pH 4.4; tetramer kept
Experimental: The behaviour of the oxidised mutant A38C was also analysed. […] When the pH is decreased to 4.4, no modification in the elution volume is observed. The addition of the disulphide bridge therefore increases the stability of the protein assembly. The adding of 0.003% SDS leads to the dissociation of the tetramer into dimers, constituted of monomers bonded together by the disulphide bridge.

XCL labelled with RITC [6] = target: T1, XCL labelled with RITC (Xerocomus chrysenteron, RITC on surface epsilon-amino groups, 0.9 mol of RITC per mol of XCL); test: FRET kinetics at 580 nm after mixing XCL-FITC and XCL-RITC, double exponential fit; slow dissociation of the tetramer (proportion a=0.39); k1, slower of the two dissociation pathways of the tetramer
T1 construct: FRET acceptor population of XCL; also called RITC-XCL; XCL-RITC
T1 chain: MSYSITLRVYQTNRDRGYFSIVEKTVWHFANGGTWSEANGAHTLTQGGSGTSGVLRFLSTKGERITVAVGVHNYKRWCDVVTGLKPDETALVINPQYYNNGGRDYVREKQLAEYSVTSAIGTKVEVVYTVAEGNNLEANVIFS
Experimental: (§1) The speed of the exchange of subunits was measured by the same technique. The reaction is initiated by mixing the same volume of XCL-RITC (1 μM) and of XCL-FITC (1 μM) at 25° C. in 50 mM of phosphate buffer, 100 mM NaCl, pH 8.5. The excitation is carried out at 468 nm and the fluorescence emission at 580 nm is recorded every 0.5 seconds. The fluorescence intensity is normalised by using the equation: […]

XCL labelled with RITC [7] = target: T1, XCL labelled with RITC; test: FRET kinetics at 580 nm after mixing XCL-FITC and XCL-RITC, double exponential fit; fast dissociation of the tetramer; k2, faster of the two dissociation pathways of the tetramer
Experimental: as §1

[8] = SDS-PAGE of tetramer and disulphide bridge stability; type: physicochemical; details: reduced glutathione 10 mM in oxidation buffer
Experimental: The clone A38C was obtained by directed mutagenesis by using the XCL plasmid as a matrix and the protein produced and purified by using the same protocol as that used to produce XCL (Trigueros et al. (2003)). A yield of 25 mg of purified protein per litre of culture was obtained. The last part of the protocol consisted in a step of oxidation for 12 hours in the presence of 10 mM of oxidised glutathione. This step is required in order to produce disulphide bridges between the monomers. The forming of these covalent bonds was verified by SDS-PAGE. Two SDS-PAGE were prepared. Beta-mercaptoethanol was added to the samples in the first gel while beta-mercaptoethanol was not added to the second gel. When XCL is heated to 95° C. 5 min before the deposit, a single band is observed with a molecular weight slightly greater than 20 kDa on the two gels. This band corresponds to the species in monomer form.
A variant T12C was produced in the same manner as A38C by directed mutagenesis by using the XCL plasmid as a matrix. By using the same protocol, 10 mg of protein per litre of culture were produced. The oxidation rate of the variant T12C was sought by using the same method by SDS-PAGE as for A38C. These rates were compared with those obtained with the variant A38C. Several oxidative conditions were tested with different concentrations of reduced glutathione. […]

B1: Xerocomus chrysenteron lectin (XCL) (other)
chain: T1 chain
notes: Recombinant fungal lectin, a homotetramer in solution; also called wild-type protein; native XCL protein
Kd [1]: 4.5 µM

B2: A38C: XCL variant with alanine 38 replaced by cysteine, SEQ ID NO: 2; A38R reduced before confinement, A38NR not reduced, A38Cox oxidised (protein)
chain: T1 chain with A38C
modifications: Variant A38C
notes: A38R reduced before confinement, A38NR not reduced, A38Cox oxidised
FRET between FITC- and RITC-labelled protein after mixing (monomer redistribution) [2]: no FRET is observed
oligomeric state by elution volume at pH 4.4 with SDS ([3]; pH 4.4, 0.003% SDS): dissociation of the tetramer into dimers
oligomeric state by elution volume at pH 4.4 ([3]; pH 4.4, no SDS): no modification in the elution volume is observed
confinement rate after incubation [4]: remained unchanged

B3: XCL variant A38C, oxidised (other)
chain: T1 chain with A38C
modifications: interchain disulphide bridge between Cys 38 of opposite monomers (oxidised with GSSG)
notes: Homotetramer with two added disulphide bridges that link monomers diagonally; In the FRET experiment it was labelled with FITC or RITC; also called mutant A38C; oxidised mutant A38C
binding result [5]: binds

B4: XCL labelled with FITC (other)
chain: T1 chain
modifications: FITC on surface epsilon-amino groups, 4 mol of FITC per mol of XCL
notes: FRET donor population of XCL; also called FITC-XCL; XCL-FITC
koff (XCL labelled with RITC [6]): 0.012 s⁻¹
koff (XCL labelled with RITC [7]): 0.042 s⁻¹

B5: T12C: XCL variant with threonine 12 replaced by cysteine, SEQ ID NO: 3 (protein)
chain: T1 chain with T12C
modifications: Variant T12C
stability of the additional disulphide bridge [8]: less stable than the disulphide bridge of A38C
